{"source": "paper PMC6764986", "binders": {"B1": {"name": "NbALFA (non-tagged) (VHH)", "VHH": "EVQLQESGGGLVQPGGSLRLSCTASGVTISALNAMAMGWYRQAPGERRVMVAAVSERGNAMYRESVQGRFTVTRDFTNKMVSLQMDNLKPEDTAVYYCHVLEDRVDSFHDYWGQGTQVTVSS"}}, "molecular_target": "ALFA-tagged target immobilized for SPR (TST-NEDD8-ALFA or GFP-ALFA)", "test": "SPR; ALFA-tagged ligand (TST-NEDD8-ALFA or GFP-ALFA) coupled by EDC-NHS to HC1000m chip; NbALFA as analyte; 20 °C, 40 µL/min, PBS with 0.002% Tween-20 pH 7.4; dissociation followed for > 7 h", "data": [{"binder": "B1", "values": [{"measurement": "Kd", "result": 0.026, "unit": "nM"}]}]}
